From US20170240596A1 (published 2017)
No end group written: not given here.

Columns and labels:
[1] = molecular target: C4-2; test: flow cytometry; C4-2 cells; apparent Kd
[2] = molecular target: C4-2 cells; test: flow
[3] = molecular target: C4-2; test: flow
[4] = molecular target: C4-2 cells; test: flow cytometry; C4-2 cells; apparent Kd

Binder	Kd [1] [µM]	also measured
HSDNHYRPADKL (also: FAM label, position not given here) [HSD]	30.8	–
GTIQPYPFSWGY (also: FAM (fluorescein amidite) label, position not given here) [GTI]	–	Kd [2]: 8.91 µM; Kd [3]: 8.91 µM
SGYQTFYWPGPI (also: FAM label, position not given here) [Scrambled GTI]	–	Kd [4]: > 100 µM

Second part, led by results:

Kd [1] [µM]	Binder	also measured
44.1	TGHLYPTRMEIQ (also: FAM label, position not given here) [TGH]	–
9.79	YVNSHSILGYTG (also: FAM label, position not given here) [YVN]	–
